Laboratory results: patent US20230124669A1

Key:
[1] = target: neonatal Fc receptor FcRn; assay: FcRn binding of bispecific antibody; method not stated
[2] = target: neonatal Fc receptor FcRn; assay: FcRn binding of bispecific antibody at acidic pH; method not stated

Sequence of neonatal Fc receptor FcRn (P55899 24-297, chain 1 of 2): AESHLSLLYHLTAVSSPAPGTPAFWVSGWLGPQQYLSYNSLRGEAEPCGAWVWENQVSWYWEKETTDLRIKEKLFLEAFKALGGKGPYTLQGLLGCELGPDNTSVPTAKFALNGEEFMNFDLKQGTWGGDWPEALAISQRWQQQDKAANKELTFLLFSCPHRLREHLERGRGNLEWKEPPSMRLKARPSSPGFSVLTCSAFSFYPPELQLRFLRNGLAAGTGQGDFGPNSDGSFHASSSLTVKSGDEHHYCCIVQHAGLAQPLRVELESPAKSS
Sequence of neonatal Fc receptor FcRn (P61769 21-119, chain 2 of 2, further chain): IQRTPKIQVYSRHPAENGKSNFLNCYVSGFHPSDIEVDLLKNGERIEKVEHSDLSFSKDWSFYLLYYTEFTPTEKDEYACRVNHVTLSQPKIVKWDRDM

B1: TY21489 (bispecific antibody, part only; not given: rest of both heavy chains, lights, not shown: a dimerising Fc or GST)
heavy, part 1: GQPREPQVYTLPPSRKKLTKNQVKLTCLVKGFYPSDIAVEWESNGQPENNYKTTPPVLDCDGSFFLYSKLTVDKSRWQQGNVFSCSVMHEALHNHYTQKSLSLSPGK
heavy, part 2: GQPREPQVYTDPPSRDELTKNQVSLTCLVDGFYPSDIAVEWESNGQPENCYKTTPPVLDSDGSFFLYSKLTVDKSRWQQGNVFSCSVMHEALHNHYTQDSLSLSPGK
- pH dependent FcRn binding/% [1]: 0%
- FcRn binding at acidic pH/nM [2]: 53.7 nM
